One data set addresses T1, CYCLINL1 (cyclin L1) (UniProt Q9UK58 1-526).
T1 sequence: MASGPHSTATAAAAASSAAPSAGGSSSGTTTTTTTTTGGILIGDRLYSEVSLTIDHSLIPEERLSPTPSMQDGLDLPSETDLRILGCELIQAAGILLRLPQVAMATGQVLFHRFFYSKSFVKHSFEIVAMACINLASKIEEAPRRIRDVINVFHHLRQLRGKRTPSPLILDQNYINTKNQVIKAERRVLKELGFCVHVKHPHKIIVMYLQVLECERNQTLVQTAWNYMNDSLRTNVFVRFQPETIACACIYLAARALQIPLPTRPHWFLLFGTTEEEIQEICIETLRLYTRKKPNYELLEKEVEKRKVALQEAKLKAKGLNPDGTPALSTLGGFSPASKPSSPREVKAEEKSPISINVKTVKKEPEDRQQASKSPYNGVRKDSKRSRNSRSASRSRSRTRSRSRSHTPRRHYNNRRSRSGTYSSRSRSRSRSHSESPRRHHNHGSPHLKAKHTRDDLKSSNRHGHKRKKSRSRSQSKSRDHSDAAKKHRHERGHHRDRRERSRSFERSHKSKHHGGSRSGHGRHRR
Briefly: EMSA; 10 mM Mg2+, tRNA, RNase T1; EMSA: 10 mM Tris-Cl pH 7.5, 25 mM KCl, 10 mM MgCl2, 1 mM DTT, 100 ng/ml tRNA, 25 C 30 min, then RNase T1 37 C 15 min. Pull-down: lysate in 50 mM Tris-HCl pH 7.5, 150 mM NaCl, 1% NP-40, 0.1% SDS, 4 C 12 h; wash 50 mM Tris pH 7.4, 150 mM NaCl, 0.05% NP-40, 1 mM MgCl2. As to conditions: protein: ivt; tags: Myc; label: 3' biotin. For orientation: In EMSA bound probe runs differently from free probe, usually more slowly.

In the next data set the target is CDK19 (UniProt Q9BWU1 1-502). The data set is described as above. As to conditions: protein: ivt; tags: Flag; label: 3' biotin.
Chain of CDK19 (Q9BWU1 whole entry): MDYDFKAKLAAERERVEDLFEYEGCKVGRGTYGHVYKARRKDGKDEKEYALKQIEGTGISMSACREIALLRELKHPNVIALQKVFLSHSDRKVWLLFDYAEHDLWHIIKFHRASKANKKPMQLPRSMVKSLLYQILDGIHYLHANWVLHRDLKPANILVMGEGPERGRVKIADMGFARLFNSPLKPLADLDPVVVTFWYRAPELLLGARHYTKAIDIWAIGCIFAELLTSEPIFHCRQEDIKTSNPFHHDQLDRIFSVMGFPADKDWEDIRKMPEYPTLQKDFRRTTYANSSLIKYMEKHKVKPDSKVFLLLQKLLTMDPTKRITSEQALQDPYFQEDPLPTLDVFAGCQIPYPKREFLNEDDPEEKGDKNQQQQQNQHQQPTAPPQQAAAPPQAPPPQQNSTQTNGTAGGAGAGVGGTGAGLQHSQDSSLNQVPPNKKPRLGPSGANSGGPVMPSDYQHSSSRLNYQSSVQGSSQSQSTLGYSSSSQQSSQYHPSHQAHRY

B1: Probe m6A in Fig3e (NEAT1-1 site #4) (ssRNA)
RNA: UUAUUUUUAUCGUUGGGAUCUUUCUGUCUUCUGGGUUCCAUUUUUUAAAUGUUUAAAAAUAUGUUGACAUGGUAGUUCAGUUCUUAACCAAUGACUUGGGGAUGA
modifications: m6A at site #4 (A3494); stoichiometry and installation not stated
For the molecule B1, the binding result with CYCLINL1 (cyclin L1) is on record as “binds”.
For the molecule GCAGCCCCUUUUUUUCCAGACCAAGGGCUGUGA (ssRNA) [Probe WT in Fig3e (NEAT1-1 U-rich)], in the data set with CDK19, the binding result was “binds”.

The record behind these values is article PMC7733260, “Long non-coding RNA NEAT1 promotes bone metastasis of prostate cancer through N6-methyladenosine”.
